# Measured values from PMC8158011 (Proceedings of the National Academy of Sciences of the …, 2021).
# T1: FGFR4-Ecto-Fc (ectodomain of human FGFR4 fused to the Fc region of human IgG1) (human, UniProt P22455 22-369)
# T1 sequence (looked up): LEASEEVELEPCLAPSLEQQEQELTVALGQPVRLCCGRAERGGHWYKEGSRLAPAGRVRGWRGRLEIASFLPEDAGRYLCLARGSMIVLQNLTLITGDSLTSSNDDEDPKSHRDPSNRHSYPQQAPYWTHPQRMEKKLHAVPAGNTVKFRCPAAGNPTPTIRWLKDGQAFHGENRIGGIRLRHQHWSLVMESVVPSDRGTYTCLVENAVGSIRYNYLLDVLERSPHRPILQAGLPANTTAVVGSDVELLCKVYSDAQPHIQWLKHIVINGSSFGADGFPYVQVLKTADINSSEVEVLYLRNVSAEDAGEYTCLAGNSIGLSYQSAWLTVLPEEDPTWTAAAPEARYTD
# B1: purified recombinant human FAM3B-His protein (ligand, UniProt P58499 30-235, looked up)
# chain: ELIPDAPLSSAAYSIRSIGERPVLKAPVPKRQKCDHWTPCPSDTYAYRLLSGGGRSKYAKICFEDNLLMGEQLGNVARGINIAIVNYVTGNVTATRCFDMYEGDNSGPMTKFIQSAAPKSLLFMVTYDDGSTRLNNDAKNAIEALGSKEIRNMKFRSSWVFIAAKGLELPSEIQREKINHSDAKNNRYSGWPAEIQIEGCIPKERS
# Biological target: T1, FGFR4-Ecto-Fc (ectodomain of human …)
# Assay: pull-down
binder,measurement,value
B1,binding result,binds
